Results reported in patent publication US20250326842A1 (BEIGENE SWITZERLAND, published 2025).

Experiments:
[1] = target: T1, human PVRIG-mIgG2a (human, UniProt Q6DKI7 41-171, limits assumed); test: ELISA, hPVRIG-mIgG2a coated at 0.5 µg/mL
T1 construct: also called hPVRIG-mIgG2a; hPVRIG; not shown: mouse IgG2a Fc
T1 sequence: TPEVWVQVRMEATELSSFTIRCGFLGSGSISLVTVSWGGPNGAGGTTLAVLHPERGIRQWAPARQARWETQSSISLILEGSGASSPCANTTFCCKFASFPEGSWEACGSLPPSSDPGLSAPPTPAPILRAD

[2] = target: T2, FcγRIIA H131 (human, UniProt P12318 36-218, limits assumed); test: Biacore, KD from equilibrium analysis
T2 sequence (looked up): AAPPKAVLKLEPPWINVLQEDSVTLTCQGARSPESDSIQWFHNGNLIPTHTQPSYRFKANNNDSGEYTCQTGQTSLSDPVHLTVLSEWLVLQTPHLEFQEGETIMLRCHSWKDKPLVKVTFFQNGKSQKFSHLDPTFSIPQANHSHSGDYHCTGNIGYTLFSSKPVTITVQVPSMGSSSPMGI
Procedure: (§1) K¹ (M) values were calculated from the ratio of the kinetic constants as KD=koff/kₒₙ. K2 (M) values were determined by the analyte concentration at which half of the ligands are occupied at equilibrium.

[3] = target: T3, FcγRIIA R131 (human, UniProt P12318 36-218, limits assumed); test: Biacore, KD from equilibrium analysis
T3 sequence (looked up): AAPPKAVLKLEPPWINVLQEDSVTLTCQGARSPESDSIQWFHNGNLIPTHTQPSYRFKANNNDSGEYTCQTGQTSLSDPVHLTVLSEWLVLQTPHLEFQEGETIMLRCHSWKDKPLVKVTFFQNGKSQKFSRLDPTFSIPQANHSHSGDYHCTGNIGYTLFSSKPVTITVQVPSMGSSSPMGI
Procedure: as §1

[4] = target: T4, FcγRIIB (human, UniProt P31994 46-217, limits assumed); test: Biacore, KD from equilibrium analysis
T4 sequence (looked up): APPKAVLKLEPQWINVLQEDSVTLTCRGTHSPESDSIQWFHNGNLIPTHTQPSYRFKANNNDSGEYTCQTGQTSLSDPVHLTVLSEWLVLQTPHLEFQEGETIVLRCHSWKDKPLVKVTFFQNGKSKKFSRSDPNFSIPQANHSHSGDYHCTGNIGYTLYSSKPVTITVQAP
Procedure: as §1

[5] = target: FcγRIIIA F158 (human, UniProt P08637 17-208, limits assumed); test: Biacore, KD from equilibrium analysis
FcγRIIIA F158, sequence (P08637 17-208 limits assumed): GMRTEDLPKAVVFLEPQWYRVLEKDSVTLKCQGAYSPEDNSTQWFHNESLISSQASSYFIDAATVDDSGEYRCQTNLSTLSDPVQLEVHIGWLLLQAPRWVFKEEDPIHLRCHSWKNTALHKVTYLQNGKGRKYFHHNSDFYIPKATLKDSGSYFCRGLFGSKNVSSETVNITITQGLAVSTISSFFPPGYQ
Procedure: as §1

[6] = target: FcγRIIIA V158 (human, UniProt P08637 17-208, limits assumed); test: Biacore, KD from equilibrium analysis
FcγRIIIA V158, sequence (P08637 17-208 F176V limits assumed): as the sequence (P08637 17-208 limits assumed) above, with F160V counted along it
Procedure: as §1

[7] = target: T5, Human Serum Albumin Protein His Tag (human, UniProt P02768 25-609); test: immunohistochemistry on protein smears, Biotin-BGA384
T5 construct: also called negative control protein smear; not shown: His tag
T5 sequence (P02768 25-609 limits assumed): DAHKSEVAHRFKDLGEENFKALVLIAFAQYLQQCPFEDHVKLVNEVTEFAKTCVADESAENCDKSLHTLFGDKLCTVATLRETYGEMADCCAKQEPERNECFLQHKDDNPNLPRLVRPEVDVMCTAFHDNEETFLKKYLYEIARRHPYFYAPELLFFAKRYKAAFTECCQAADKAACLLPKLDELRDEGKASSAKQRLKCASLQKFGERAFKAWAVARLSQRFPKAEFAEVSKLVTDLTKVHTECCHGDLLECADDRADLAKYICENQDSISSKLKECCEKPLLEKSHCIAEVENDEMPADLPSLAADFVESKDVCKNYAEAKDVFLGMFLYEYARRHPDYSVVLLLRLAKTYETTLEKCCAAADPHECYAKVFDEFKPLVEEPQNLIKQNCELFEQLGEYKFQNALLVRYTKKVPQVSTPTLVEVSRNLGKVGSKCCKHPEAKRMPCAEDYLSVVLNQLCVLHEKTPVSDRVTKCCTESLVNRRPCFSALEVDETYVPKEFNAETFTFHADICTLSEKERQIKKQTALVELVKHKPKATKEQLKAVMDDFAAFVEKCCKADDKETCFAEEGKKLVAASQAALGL
Description: Materials and Methods: A total of 35 tissue types, each in triplicate from 3 donors, were used for the evaluation. […] 0.5 and […] Biotin-Human IgG1-Kappa (IgG1 isotype control), and 0.01 mol/L phosphate-buffered saline (reagent control).

[8] = target: T6, human PVRIG recombinant protein (human, UniProt Q6DKI7 41-171); test: SPR, antibody captured via anti-human Fc, human PVRIG analyte
T6 construct: also called human PVRIG protein; recombinant human antigen PVRIG
T6 sequence: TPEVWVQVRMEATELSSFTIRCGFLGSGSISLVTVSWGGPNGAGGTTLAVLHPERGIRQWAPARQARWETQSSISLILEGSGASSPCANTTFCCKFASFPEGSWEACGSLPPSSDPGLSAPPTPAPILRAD
Description: For affinity determination, anti-PVRIG antibodies were captured by anti-human Fc antibodies, and used in the affinity assay based on surface plasmon resonance (SPR) technology.

[9] = target: T6, human PVRIG recombinant protein; test: competition ELISA, BGA384 against biotinylated human PVRL2 (Fc-Avi-tag) on coated human PVRIG
[10] = target: T7, Cyno PVRIG expressed on HEK293 cells (cynomolgus monkey); test: flow cytometry on HEK293 cells expressing cyno PVRIG, anti-hFc-647 detection [panel B]
T7 construct: also called native Cyno PVRIG
T7 chain: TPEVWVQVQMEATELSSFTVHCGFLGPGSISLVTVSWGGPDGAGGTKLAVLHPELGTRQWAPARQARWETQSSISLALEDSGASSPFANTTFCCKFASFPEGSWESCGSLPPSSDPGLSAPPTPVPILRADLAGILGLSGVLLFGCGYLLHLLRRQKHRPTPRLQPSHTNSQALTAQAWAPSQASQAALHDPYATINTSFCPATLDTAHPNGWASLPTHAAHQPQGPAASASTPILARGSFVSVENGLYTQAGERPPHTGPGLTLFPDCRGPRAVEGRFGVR
Procedure: To evaluate the binding activity of anti-PVRIG antibodies to native Cyno PVRIG on living cells. HEK293 cells were engineered to express Cyno PVRIG. HEK293 cells transfected with Cyno PVRIG were seeded in 96 well plates and were incubated with a serial dilution of anti-PVRIG antibodies. […] EC50 values for dose dependent binding to Cyno native PVRIG were determined by fitting the dose response data to the four-parameter logistic model with GraphPad Prism™.

[11] = target: T1, human PVRIG-mIgG2a; test: cell-based competition, BGA384 against binding of hPVRIG-mIgG2a (300 ng/ml) to Farage-hPVRL2 cells, flow cytometry
Description: The bound human PVRIG was detected with PE anti-mouse IgG2a antibody by flow cytometry.

[12] = target: Human C1q (human, UniProt P02745 23-245; P02746 28-253; P02747 29-245); test: ELISA: plate coated with increasing amounts of antibody, human C1q at 8 µg/mL, anti-C1q antibody detection
Human C1q, sequence (P02745 23-245 limits assumed, chain 1 of 3): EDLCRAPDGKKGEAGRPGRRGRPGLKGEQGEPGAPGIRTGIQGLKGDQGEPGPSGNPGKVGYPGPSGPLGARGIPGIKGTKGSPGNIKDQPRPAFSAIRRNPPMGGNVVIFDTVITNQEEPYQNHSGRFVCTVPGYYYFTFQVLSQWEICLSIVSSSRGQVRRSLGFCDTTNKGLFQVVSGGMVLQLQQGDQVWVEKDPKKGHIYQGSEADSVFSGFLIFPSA
Human C1q, sequence (P02746 28-253 limits assumed, chain 2 of 3): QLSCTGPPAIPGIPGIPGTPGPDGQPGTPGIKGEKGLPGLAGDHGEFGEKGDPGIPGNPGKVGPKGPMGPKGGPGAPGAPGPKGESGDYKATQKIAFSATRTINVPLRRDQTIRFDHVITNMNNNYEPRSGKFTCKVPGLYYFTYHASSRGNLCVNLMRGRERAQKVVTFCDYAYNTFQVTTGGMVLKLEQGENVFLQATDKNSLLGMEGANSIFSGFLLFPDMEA
Human C1q, sequence (P02747 29-245 limits assumed, chain 3 of 3): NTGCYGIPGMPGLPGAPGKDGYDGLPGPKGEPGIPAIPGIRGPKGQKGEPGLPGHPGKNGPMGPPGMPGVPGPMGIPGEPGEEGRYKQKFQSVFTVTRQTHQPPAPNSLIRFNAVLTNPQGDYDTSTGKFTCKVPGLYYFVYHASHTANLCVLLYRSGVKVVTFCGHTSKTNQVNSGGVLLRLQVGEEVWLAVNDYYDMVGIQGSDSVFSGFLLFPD
Procedure: Human C1q (100 uL total: 8 μg/mL) was incubated in the antibody-coated wells. Bound C1q was detected by a specific anti-C1q monoclonal antibody. ELISA readings at 450 nm were plotted on the y-axis.

[13] = target: T8, hPVRIG-ECD-his (human, UniProt Q6DKI7 41-171); test: blocking ELISA: hPVRIG-His coated, antibody mixed with PVRL2-biotin at 1 ug/mL; % inhibition of PVRL2 binding [panel B]
T8 construct: Acrobiosystems PVG-H52H4; also called hPVRIG-His; human PVRIG-His; not shown: His tag
T8 sequence: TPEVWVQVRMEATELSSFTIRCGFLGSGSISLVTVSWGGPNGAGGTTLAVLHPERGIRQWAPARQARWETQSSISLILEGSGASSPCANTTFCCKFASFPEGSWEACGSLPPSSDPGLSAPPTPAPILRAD

EC50 [1]: 8.79 ng/mL
Kd [2]: 1480 nM
Kd [3]: 1920 nM
Kd [4]: 9.23 µM
Kd [5]: 689 nM
Kd [6]: 297 nM
binding result [7]: no binding (tested: 0.5 and 1 µg/mL)
Kd [8]: 0.258 nM
koff [8]: 0.000304 s⁻¹
kon [8]: 1.18e+06 M⁻¹ s⁻¹
IC50 [9]: 0.383 µg/mL
EC50 (read off the curve) [10]: ~0.05 µg/mL
IC50 [11]: 0.109 µg/mL
EC50 (read off the curve) [12]: ~2 µg/mL
IC50 (read off the curve) [13]: ~0.4 µg/mL
B1: BGA384 (antibody, human IgG1, kappa)
heavy: not shown
light: QIVLTQSPATLSLSPGERATLSCSAGSSVNYMHWFQQKPGQAPRLLIYSTSNLASGVPARFSGSGSGTDYTLTISSLEPEDFAVYYCQQRSSLPFTFGQGTKLEIKRTVAAPSVFIFPPSDEQLKSGTASVVCLLNNFYPREAKVQWKVDNALQSGNSQESVTEQDSKDSTYSLSSTLTLSKADYEKHKVYACEVTHQGLSSPVTKSFNRGEC
notes: also called BGB-A538; BGA384 WT
